The source of these data is patent US20240002531A1 (ONO PHARMACEUTICAL, published 2024).

Holding throughout (assay): peptide ELISA, OD 655 nm
The target of assay [1] is T1, E619A peptide (HER2 603-622 with E619A) (human).
T1 peptide: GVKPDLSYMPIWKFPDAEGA

Assay [2] has as its target T2, E620A peptide (HER2 603-622 with E620A) (human).
T2 peptide: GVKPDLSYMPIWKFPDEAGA

The target in assay [3] is T3, D618A peptide (HER2 603-622 with D618A) (human).
T3 peptide: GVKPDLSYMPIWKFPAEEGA

Assay [4] deals with T4, P612A peptide (HER2 603-622 with P612A) (human).
T4 peptide: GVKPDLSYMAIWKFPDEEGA

In assay [5] the target is T5, S609A peptide (HER2 603-622 with S609A) (human).
T5 peptide: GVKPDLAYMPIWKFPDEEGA

Assay [6] has as its target T6, G603A peptide (HER2 603-622 with G603A) (human).
T6 peptide: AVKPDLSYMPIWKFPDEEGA

Assay [7] addresses T7, G621A peptide (HER2 603-622 with G621A) (human).
T7 peptide: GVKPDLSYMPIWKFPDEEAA

The target in assay [8] is T8, K615A peptide (HER2 603-622 with K615A) (human).
T8 peptide: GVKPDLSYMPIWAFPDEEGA

Assay [9] has as its target T9, P606A peptide (HER2 603-622 with P606A) (human).
T9 peptide: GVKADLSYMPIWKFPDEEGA

In assay [10] the target is T10, F616A peptide (HER2 603-622 with F616A) (human).
T10 peptide: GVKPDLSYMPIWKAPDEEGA

Assay [11] concerns the target T11, L608A peptide (HER2 603-622 with L608A) (human).
T11 peptide: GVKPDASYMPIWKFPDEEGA

For assay [12], the target named is T12, V604A peptide (HER2 603-622 with V604A) (human).
T12 peptide: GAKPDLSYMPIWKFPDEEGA

For assay [13], the target named is T13, P617A peptide (HER2 603-622 with P617A) (human).
T13 peptide: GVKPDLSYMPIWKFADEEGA

Assay [14] has as its target T14, K605A peptide (HER2 603-622 with K605A) (human).
T14 peptide: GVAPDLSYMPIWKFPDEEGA

In assay [15] the target is T15, M611A peptide (HER2 603-622 with M611A) (human).
T15 peptide: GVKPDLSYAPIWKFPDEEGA

The target of assay [16] is T16, HER2_604-622C peptide (NH2-VKPDLSYMPIWKFPDEEGAC-COOH) (human).
T16 construct: KLH was added for immunisation, the peptide itself was coated in the screening ELISA
T16 peptide: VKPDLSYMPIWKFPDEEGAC

Assay [17] has as its target T17, Y610A peptide (HER2 603-622 with Y610A) (human).
T17 peptide: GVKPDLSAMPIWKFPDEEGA

The target in assay [18] is T18, D607A peptide (HER2 603-622 with D607A) (human).
T18 peptide: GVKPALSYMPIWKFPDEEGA

The target in assay [19] is T19, HER2 peptide p603-622 (amino acids 603 to 622 of human HER2) (human).
T19 construct: Synthetic peptide; also called wild-type HER2 peptide
T19 peptide: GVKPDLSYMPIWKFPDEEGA

Assay [20] addresses T20, W614A peptide (HER2 603-622 with W614A) (human).
T20 peptide: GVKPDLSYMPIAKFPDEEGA

For assay [21], the target named is T21, I613A peptide (HER2 603-622 with I613A) (human).
T21 construct: also called 1613A
T21 peptide: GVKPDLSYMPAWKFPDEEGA

B1: H2Mab-299 antibody (antibody, mouse IgG1, kappa, V domains shown)
VH: EVQLVESGGGLVQPGGSLKLSCAASGFTFNIYGIFWVRQTPDKRLELVATIHSNGGRIYYPDSVKGRFTISRDNAKNTLYLQMSSLKSEDTAMYYCAREGGDYWGQGTSVTVSS
VL: DIVMTQSHKVMATSVGDRVSITCKASQDVGTAVAWYQQKPGQSPKLLIYWASTRHTGVPDRFTGSGSGTDFTLTINNVLSEDLVDYFCQQYRRYPLTFGAGTKLELKR
For the molecule B1, the binding result in assay [1], in assay [2], in assay [3], in assay [4], in assay [5] and in assay [6] was “binds” each time. In addition, the binding result in [7] was “binds”; in assay [8], “binds”; in assay [9], “binds”; in assay [10], “no binding (tested: 10 ug/ml)”; in assay [11] it was “binds”; in [12], “binds”. The binding result in assay [13], in assay [14], in [15], in assay [16], in assay [17] and in assay [18] was “binds” throughout. Moreover, the binding result in assay [19], in assay [20] and in assay [21] was “binds” each time.
